# Measured values published in paper doi:10.1101/2025.06.13.659407, “Scavenger Receptor class F member 2 is an intracellular receptor for Hepatitis B virus” (bioRxiv, 2025).
# B1: sEGF4–6-hFc (soluble fusion protein comprising SCARF2's EGF4–6 domains, with an N-terminal HA tag and a C-terminal human IgG1 Fc tag) (Fc fusion)
# chain: GSYPYDVPDYAGSSACYCSATSRCDPQTGACLCHAGWWGRSCNNQCACNSSPCEQQSGRCQCRERTFGARCDRYCQCFRGRCHPVDGTCACEPGYRGKYCR
# Target: biotinylated preS1 peptide 79–108 carrying 89D and 90K (hepatitis B virus (residues numbered …, biotin (position not stated for this peptide)))
# Assay: pull-down; 2 µM biotinylated preS1 peptide on Dynabeads MyOne Streptavidin T1, incubated with 2 µg purified protein 1 h at 37°C, washed with PBS 0.01% Tween 20, Western blot (anti-HA or anti-human IgG1); the paper calls it immunoprecipitation (IP-Western)
# Settings: both partners purified
binder,measurement,value
B1,fold efficiency of precipitation against preS1 79–108 QT and QS peptides,~2 fold
